Assay results taken from article PMC4569573.

Assays:
[1] = biological target: human AmphiphysinII/Bin1 N-BAR domain (human); test: double-mixing stopped-flow N assay (fluorescence); unfolded in 4 M urea, refolding at 1 to 5 μM N-BAR in 0.66 M urea for 0.1 to 300 s, then unfolding in 4.5 M urea; λ2 from the amplitudes of the fast unfolding phase λ5; 15°C; step: monomers to dimeric intermediate I2
[2] = biological target: human AmphiphysinII/Bin1 N-BAR domain (human); test: stopped-flow refolding kinetics, single mixing (fluorescence); unfolded in 4 M urea, refolding by 11-fold dilution to 0.4 M urea, 0.1 to 5 μM N-BAR, 20 mM Na phosphate, 100 mM NaCl, pH 7.4, 15°C; step: two monomeric intermediates I to dimeric intermediate I2; λ2 fixed to the value from fluorescence anisotropy

λ2, second-order rate constant of the dimerization step at 0.66 M urea, 1 μM N-BAR [1]: 260000 M⁻¹ s⁻¹
λ2, second-order rate constant of the dimerization step at 0.66 M urea, 2 μM N-BAR [1]: 480000 M⁻¹ s⁻¹
λ2, second-order rate constant of the dimerization step at 0.66 M urea, 5 μM N-BAR [1]: 430000 M⁻¹ s⁻¹
λ2, second-order rate constant of the dimerization step at 0.4 M urea [2]: 620000 M⁻¹ s⁻¹
Substance: human AmphiphysinII/Bin1 N-BAR domain (domain or fragment)
